Results as given in the nanobody polyreactivity screen of Harvey et al. (2022).

Assay: yeast display, Sf9 membrane polyspecificity reagent, FACS + sequencing; frameworks hold sequencing errors
Outline: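 A synthetic nanobody library was expressed on Saccharomyces cerevisiae BJ5465 by galactose induction for 36–48 hours. The library was stained for 1 hour at 4 °C with 10% biotinylated, detergent-solubilized Sf9 membrane reagent and enriched with streptavidin microbeads before FACS. Low and high (top ~1%) gates were set on anti-HA fluorescence for expression and streptavidin fluorescence for reagent binding, and each polyreactivity label reflects the gate of origin.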

Sequence: QVQLVESGGGLVQAGGSLRLSCAASGLIFVINAMGCYRQAPGKERELVATISSGVSTNNADSVKGRFTISRDNAKNTVYLQMYSLKPEDTAVYYCNKGQTVSRGYRLYERFVYWGQGTQVTVSS
- polyreactivity (PSR sort gate): low polyreactivity

Sequence: QVQLVESGAGLVQAAGSLRLSCAASGRTFSRNAMGWYRQAPGQERELVARIRSGGSTYYADSVKGRFTISRDNAKNTVYLQMNSLKPDETAVFYLAADRYGYQFDYWGQGTQVTVSS
- polyreactivity (PSR sort gate): high polyreactivity

Sequence: QVQLVESGGGLVQAGGSLRLICAASGRTFGTHTMGWYRQAPGKERELVAAISSRGGTTYYADSVKGRFTISRDNAKNTVYLQMNSLKPEDTAVYYSNTGTRAIQRDGFEYWGQGTQVTVSS
- polyreactivity (PSR sort gate): low polyreactivity

Sequence: QVQLVESGGGLVQAGGSLRLSCAASGFTFDWYAMGWYRQAPGKERELVAAISSSGRTNYADSVKGRFTISRDNAKNTVYLQMNSLKPEDTAVYYCNRDYPYIWHKGARYWHENDYWGQGTQVTVSS
- polyreactivity (PSR sort gate): low polyreactivity

Sequence: QGQLVESGGGLVQAGGSLRLSCAASGRIVRPNAMGWYRQAPGKETEFVAAISSGGSTYYADSVKGRFTISRDNAKNSVYLQMNSLKPEDTAVYYCAADLSNRPYYRQGYDYWGQGTQVTVSS
- polyreactivity (PSR sort gate): high polyreactivity

Sequence: QVQLVESGGGLVQAGGSLRLSCAASGSTFPTYAMGWYRQAPGKERELVAAISFSGARTYYADSVKGRFTISRDNAKNTVYLQMNSLKPEDTAVYYCAKASSYSRRYEYWGQGTQVTVSS
- polyreactivity (PSR sort gate): high polyreactivity

Sequence: QVQLVESGGGLVQAGGSLRLSCAASGSTFRLNAMGWYRQARGKEWEFVAAISSRGGSTYYADSVKGRFTISRDNAKNTDYLQMNSLKPEDTAVYYCKAVRSKLIENDYWGQGTQVTVSS
- polyreactivity (PSR sort gate): high polyreactivity

Sequence: QVQLVESGGGLVQAGGSLRLSCAASGSTFASNAMGWYRQAPGKERELVAAISKRGGSTYYADSVKGRFTISRDNAKNTVYLQMNSLKPEDTSVYYCNADWTRSQYDYWGQGTQVTVSS
- polyreactivity (PSR sort gate): high polyreactivity

Sequence: QVQLVESGGGLVQAGGSLRLSCAASGSIFSYNAMGWYRQAPGKERELVAAITSGDSTNYADSVKGRFTISRDNAKNTVYLQMNSLKPEDTAVYYCAADPVLPAFGYVGTSLGDYWGQGTQVTVSS
- polyreactivity (PSR sort gate): low polyreactivity

Sequence: QVQLVESGGGLVQAGGSLRLSCAASGFIFVTYAMGWYRQAPGKERELVAAITNSGGTTYYADSVKGRFTISRDNAKNTVYLQMNSLKPEDTAVYYCNKPYGAETAHREFDYWGQGTHVTVSS
- polyreactivity (PSR sort gate): low polyreactivity

Sequence: QEQLVESGGGLVQAGGSLRLSCAASGFIFPGYTMGWYRQAPGKERELVAAISRGSSTFYADSVKGRFTISRDNAKNTVYLQMNSLKPEDTAFYYCNTRVYAITLYDYWGQGTQVTVSS
- polyreactivity (PSR sort gate): low polyreactivity

Sequence: QVQLVESGGGLVQAGGSLRLSCAASGFTFVGYVMGWYRQAPGKERELVAAISRRGRSTYYADSVKGRFTISRDNAKNTVYLQMNSLKPEDTAVYYCNKRWSSKSVQYDYWGQGTQVTVSS
- polyreactivity (PSR sort gate): high polyreactivity

Sequence: QVQLVESGGGLVQAGGSLRLSCAASGFIFRWYAMGWYRQAPGKERELVAAITSGGSTYYADSVKGRFTISRDNAKNTVYLQMNSLKPEDTAVYYCNTYPGSRHWWYDYWGQGTQVTVSS
- polyreactivity (PSR sort gate): high polyreactivity

Sequence: QVQLVESGGGLDQAGGSLRLSCAASGSIFRWYAMGWYRQAPGKEREFVAAITSSGGSTYYADSVKGRFTISRDTAKNTVYLQINSVKPEDTAVYYCNRRYQPYSYDYWGEGTQVTVSS
- polyreactivity (PSR sort gate): high polyreactivity

Sequence: QVQLVASGGGLVHAGASLRLSCAASGRIFTGNVMGWYRQAHWKERELVAAISVSGGRTYYADSVKGRFTISRDYAKNTVYLQMNSLKPVDSAVYYCNARYSRVWYGGDYWGQGTQVTVSS
- polyreactivity (PSR sort gate): high polyreactivity

Sequence: QVQLVESGGGLVQAGGSLRLSSAASGRTFNVNAMGLYRQAPGKERELVAAIDFSDGRTYYADSVKGRFTISRDNAKNTVYLQMNSLKPADTAVYYCARSFRVGKTWYDYWGQGTQVTVSS
- polyreactivity (PSR sort gate): high polyreactivity

Sequence: QVQLVESGGGLVQAGGSLRLSCAASGFTFPLNAMGWYRQAPGKEREFVAAITYSGGGTYYADSVKGRFTISRDNAKNTVYLQMNSLKPEDTAVYYCAAERGYQAHPGQGDYWGQGTQVTVSS
- polyreactivity (PSR sort gate): high polyreactivity

Sequence: QVQLQESGGGLVQAGGSLRLSCAACGNIFKYTNMGSYRQAPGKERELVATISDGASTNYADSVKGRFTISRDNAINTVYLQMNSLKPEDTAVYYCNAEGYVRFNYWGQCTQVTVSS
- polyreactivity (PSR sort gate): high polyreactivity

Sequence: QVQHVESGGGLVQAGGSLRLSCAASGSTFRPYAMGWYRQAPGKERELVARITVSGDSTYYADSVKGRFTISRDNAKNTVYLQMNSLKPEDTAVYYCAREFDYSLSGFDYWGQGTQVTVSS
- polyreactivity (PSR sort gate): low polyreactivity

Sequence: QVQLVESGGGLVQAGGSLRLSCPASGSIFKYYAMGWYRQAPGKDRELVAPITDRGSSTYYADSVKGRFTISRDNAKNTVYLQMNSLKPEDTAVYYCAAVYYAFYRFGYWGQGTQVTVSS
- polyreactivity (PSR sort gate): high polyreactivity

Sequence: QVQLVESGGGLVQAGGSLRLSCAASGRTFTQYAMGWYRQAPGKERELVARISYSGGTTYYADSVKGRFTISRDNAKNTVYLQMNSLKPEDTAVYYCARDYYGSVRFDHWGQGTQVTVSS
- polyreactivity (PSR sort gate): high polyreactivity

Sequence: QVQLVESGGGLVQAGGSLRLSCAASGSTFRKYAMGWYRQAPGKEREFVAAISSSGGRTYYADSVKGRFTISRDNAKNTVYLQMNSLKPEDTAVYYCNAYFRYSYDYWGQGTQVTVSS
- polyreactivity (PSR sort gate): high polyreactivity

Sequence: QVQLVESGGGLVQAGGSLRLSCAASGRTFGHYAMGWYRQAPGKERELVAAITSRGGSTNYADSVKGRFTISRDNAKKTDYLQMNSLKPEDTAVYYCAARLSPEEGYWGQGTQVTVSS
- polyreactivity (PSR sort gate): high polyreactivity

Sequence: QVQLVESGGGLVQAGGSLRLSCAASGSIFGVYAMGWYRQAPGTERELVAAISSRGSSTYYADSVKGRFTISRDNAKKTVYLQMLSLKPEDTAVYYCAARPGIRSYPPGYGYWGQGTQGTVSS
- polyreactivity (PSR sort gate): high polyreactivity

Sequence: QVQLVESGGGLVQAGGSLLLSCAASGFTFYGYVMGWYRQAPGKERELVAGITWRGGSTYYADSVKGRFTISRDNAKNTVYLQMNSLKPEDTAVYYCAAKSFRRGTFDYWGQGTQVTVSS
- polyreactivity (PSR sort gate): high polyreactivity

Sequence: QVQLVESGGGLVQAGGSLRLSCAASGIIFTSNTMGWYRQAPGKEREFVASINWNGSSTNADSVKGRFTISRDNAKNTVYLQMNSLKPEDTAVYYCNADYNRNSVQFSLYDYWGQGTQVTVSS
- polyreactivity (PSR sort gate): low polyreactivity

Sequence: QVQLVESGGGLVQAGGSLRLSCDASGSTSSKYAMGWYRQAPGKEWQLVATISWRTGSTYYADSVKGRFTISRDNAKNTVYLEMNSLKPEETAVYYCNARVAGRRKYDYWGQGTQVTVSS
- polyreactivity (PSR sort gate): high polyreactivity

Sequence: QVHLVESGGGLVQAGGSLRISCAASGRIFVGYVMGWYRQAPGKERELVAAITWRGGSTYADSVKGRFTISRDNAKNTVYLQMNSLIPEDTAVYYCAAKVSRTYPRIPYYYWGQGTQVTVSS
- polyreactivity (PSR sort gate): high polyreactivity

Sequence: QVQLVESGGGLVQAGGSLRLSCAASGSTFYPYAMGWYRQAPGKEWEFVADITKRGGSTYYADSVKGRFTISRDNAKNTVYLQMNSLKPEDTAVYYCNAYNYDLVYPQYDYWGQGTQVTVSS
- polyreactivity (PSR sort gate): low polyreactivity

Sequence: QVQLVESGGGLVQAGGSLRLSCAASGSIFPNGMGSYRQAPGKERELVATITSGGSTYYADSVKGRFTISRDNAKNTVYLQMNSLKPEETAVYYCADTVYGGYSGSGCNYWGKGTQVTVSS
- polyreactivity (PSR sort gate): low polyreactivity

Sequence: QVQLVESGGGLVQAGGSLRLSCAASGSIFVLYAMGWYRQAPGKERELVAAIDFGGGSTYYADSVKGRFTISRDNAKNTVYLQMNSLKPEYTAVYYCAAELYYTYRWYDYWGQGTQVTVSS
- polyreactivity (PSR sort gate): high polyreactivity

Sequence: QVQLVESGGGLVQAGGSLRLSCAASGRTFYYNTMGWYSQAPGKERELVATISRIGGSTYYADSVKGRFTISRDNAKNTVYLQMNSLKPEDTAVYYCAAYVAAYPTGYDYWGQGTQVTVSS
- polyreactivity (PSR sort gate): high polyreactivity

Sequence: QVQLVESGGGLVQAGGSLRLSCAASGRIFGHYVMGWYRQAPRKERELDAAITRGDSTYYADSVKGRFTISRDNAKNTVYLEMNSLKPEDTAVYYCAARVWRVDARDRYYWGQGTQVTVSS
- polyreactivity (PSR sort gate): high polyreactivity

Sequence: QVQLVESGGGIVQAGGSLRLSCAASGSTFSYNAMGWDRQAPGKERELVAAITSRGGSTRYADSVKGRFTISRDNAKNTVYLQMNSLKPEDTAVYYCARPYSYYPYSTVNYWGQGTQVTVSS
- polyreactivity (PSR sort gate): high polyreactivity

Sequence: QVQLVESGGGFVQAGGSLRLRCAASGRTFGWYAMGWYRQAPGKERELVAAITWRGGSTYYADSVKGRFTISRDNAKNTVYLQMNSLKPEDTAVYYCAAAAEKRSYYWGQGTQVTVSS
- polyreactivity (PSR sort gate): high polyreactivity

Sequence: QVQLVESGAGLVQAGGSLRLICAASGRTFYPNAMGWYRQAPGKERELVAAITYSGTRTYYADSVKGRFTISRDNAKNTVYLQMNSLKPEDTAVYYCAAVVGKIGFNYWGQGTQVTVSS
- polyreactivity (PSR sort gate): high polyreactivity

Sequence: QVQLVESRGCLVQAGVSLRLSCSASGSIFKIYAMGWYRQAPGKERELVATITGIADSTYYADSVKGRFTISRDNAKNTVYLLMNSLKPDDNAVYYCAADNYVADYDYWGQGTQVTVSS
- polyreactivity (PSR sort gate): low polyreactivity

Sequence: QVQLVESGGGLVQAGGSLRLSCAASGFTFTQYGMGWYRQAPGKEREFVATIRFSGDNTYYADSVKGRFTISRDNAKNTVYLQMNSLKPEDTAVYYCNADNRAFFVYPVSKRYDSWGQGSQVTVSS
- polyreactivity (PSR sort gate): low polyreactivity

Sequence: QVQLVESGGGLVQAGGSLRLSCAASGRIFPAYAMGWYRQAPGKERELVASIRRGGITYADSVKGRFTISRDNAKNTVYLQMNSLKPEDTAVYYCARPQWRDWYGYWGQGTQVTVSS
- polyreactivity (PSR sort gate): low polyreactivity

Sequence: QAQLQESGGSLVQAGGGMRLSCAASGYISVGSVMGWYRQAPSKERELVASIDQGANTNYADSVKGRFTISRDNAKNNVYLQMNSLKPEDTAVYYCATETTYILNYWGQGTQVTVSS
- polyreactivity (PSR sort gate): low polyreactivity

Sequence: QVQLVESGGGLVQAGGSLRLSCAASGGIFGRYAMGWYIQAPGKERELFAAISKRGGSTYYADSVKGRFTISRDNAKNTVYLQMNSLKPEDTAVYYCNAYRLSYTTFGKADGDYWGQGTQVTVSS
- polyreactivity (PSR sort gate): high polyreactivity

Sequence: QVQLVESGGGLVHAGGSLRLSCAASGRTFGTYAKGWYRQAPGKERELVAAISSRGGSTYYADSVKGRFTISRDNAKNTVYLQMNSLKPEDTAVYYCAQRVKDGSGYWGQGTQVTVSS
- polyreactivity (PSR sort gate): high polyreactivity

Sequence: QVQLVESGGGLVQAGGSLRLSCAASGSIFPYNDMGWYRQAPGKERELVAAISDSAGSTYYADSVKGRFTISRDNAKNTVYLQMNSLKPEYTAVYYCADYDYWGQGTQVTVSS
- polyreactivity (PSR sort gate): low polyreactivity
